Laboratory results reported in publication PMC4686857.

Target: β2 subunit of human LFA-1 expressed in BAF/LFA-1 cells (human) (UniProt P05107)
Test: co-IP; lysates of BAF/LFA-1 cells transfected with vector or Spa-1, ±CXCL12 for 1 min, immunoprecipitated with anti-β2, immunoblotted with anti-FLNa

Sequence of UniProt P05107 (P05107 23-769): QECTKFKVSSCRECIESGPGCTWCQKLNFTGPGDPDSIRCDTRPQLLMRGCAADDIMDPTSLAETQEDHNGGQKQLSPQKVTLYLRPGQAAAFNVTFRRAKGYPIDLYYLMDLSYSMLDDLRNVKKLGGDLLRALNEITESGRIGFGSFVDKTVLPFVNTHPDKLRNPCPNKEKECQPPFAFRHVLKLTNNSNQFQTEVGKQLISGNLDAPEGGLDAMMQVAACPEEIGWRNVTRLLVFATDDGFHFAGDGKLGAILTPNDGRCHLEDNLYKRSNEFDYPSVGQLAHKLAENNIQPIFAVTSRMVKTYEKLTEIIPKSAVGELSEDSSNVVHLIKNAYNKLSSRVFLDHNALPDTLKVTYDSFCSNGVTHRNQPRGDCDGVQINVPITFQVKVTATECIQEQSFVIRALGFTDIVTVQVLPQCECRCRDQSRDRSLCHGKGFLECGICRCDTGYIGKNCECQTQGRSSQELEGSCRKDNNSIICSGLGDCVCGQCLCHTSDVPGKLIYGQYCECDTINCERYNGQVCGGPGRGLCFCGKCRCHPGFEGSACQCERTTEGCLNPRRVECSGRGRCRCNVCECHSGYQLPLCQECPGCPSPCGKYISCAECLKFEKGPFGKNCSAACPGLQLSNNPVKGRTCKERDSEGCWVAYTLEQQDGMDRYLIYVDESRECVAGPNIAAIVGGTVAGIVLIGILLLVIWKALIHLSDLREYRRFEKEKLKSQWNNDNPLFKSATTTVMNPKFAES

Substance: endogenous FLNa of BAF/LFA-1 cells, Q8BTM8 1-2647
- FLNa co-precipitated with β2 after CXCL12 stimulation, Spa-1-expressing cells, percent: 64.7%
- FLNa co-precipitated with β2 after CXCL12 stimulation, control cells, percent: 25.2%
